From US20040087777A1 (NEURALAB, published 2004)
One block for each binder: values may come before it.

Columns and labels:
[1] = biological target: T1, … analog, Residue 8 = R; test: rNET
T1 peptide: DAEFRHDRGY
Description: (§1) The rNET epitope map assay provides information about the contribution of individual residues within the epitope to the overall binding activity of the antibody. rNET analysis uses synthesized systematic single substituted peptide analogs. Binding of an antibody being tested is determined against native peptide (native antigen) and against 19 alternative “single substituted” peptides, each peptide being substituted at a first position with one of 19 non-native amino acids for that position. A profile is generated reflecting the effect of substitution at that position with the various non-native residues. Profiles are likewise generated at successive positions along the antigenic peptide. The combined profile, or epitope map, (reflecting substitution at each position with all 19 non-native residues) can then be compared to a map similarly generated for a second antibody.
(§2) Antibodies were tested for binding against the native Aβ peptide [sequence] […] Residues 1-8 were systematically substituted with each of the 19 non-native residues for that position.

[2] = biological target: T2, … analog, Residue 8 = P; test: rNET
T2 peptide: DAEFRHDPGY
Description: as §1, §2

[3] = biological target: T3, … analog, Residue 2 = T; test: rNET
T3 peptide: DTEFRHDSGY
Description: as §1, §2

[4] = biological target: T4, … analog, Residue 8 = C; test: rNET
T4 peptide: DAEFRHDCGY
Description: as §1, §2

[5] = biological target: T5, … analog, Residue 2 = G; test: rNET
T5 peptide: DGEFRHDSGY
Description: as §1, §2

[6] = biological target: T6, … analog, Residue 3 = Q; test: rNET
T6 peptide: DAQFRHDSGY
Description: as §1, §2

[7] = biological target: T7, … analog, Residue 3 = N; test: rNET
T7 peptide: DANFRHDSGY
Description: as §1, §2

[8] = biological target: T8, … analog, Residue 1 = S; test: rNET
T8 peptide: SAEFRHDSGY
Description: as §1, §2

[9] = biological target: T9, … analog, Residue 1 = M; test: rNET
T9 peptide: MAEFRHDSGY
Description: as §1, §2

[10] = biological target: T10, … analog, Residue 1 = F; test: rNET
T10 peptide: FAEFRHDSGY
Description: as §1, §2

[11] = biological target: T11, … analog, Residue 3 = H; test: rNET
T11 peptide: DAHFRHDSGY
Description: as §1, §2

[12] = biological target: T12, … analog, Residue 3 = P; test: rNET
T12 peptide: DAPFRHDSGY
Description: as §1, §2

[13] = biological target: T13, … analog, Residue 1 = E; test: rNET
T13 peptide: EAEFRHDSGY
Description: as §1, §2

[14] = biological target: T14, … analog, Residue 1 = C; test: rNET
T14 peptide: CAEFRHDSGY
Description: as §1, §2

[15] = biological target: T15, … analog, Residue 2 = F; test: rNET
T15 peptide: DFEFRHDSGY
Description: as §1, §2

[16] = biological target: T16, … analog, Residue 1 = H; test: rNET
T16 peptide: HAEFRHDSGY
Description: as §1, §2

[17] = biological target: T17, … analog, Residue 3 = W; test: rNET
T17 peptide: DAWFRHDSGY
Description: as §1, §2

[18] = biological target: T18, … analog, Residue 2 = C; test: rNET
T18 peptide: DCEFRHDSGY
Description: as §1, §2

[19] = biological target: T19, … analog, Residue 1 = P; test: rNET
T19 peptide: PAEFRHDSGY
Description: as §1, §2

[20] = biological target: T20, … analog, Residue 1 = K; test: rNET
T20 peptide: KAEFRHDSGY
Description: as §1, §2

[21] = biological target: T21, … analog, Residue 3 = D; test: rNET
T21 peptide: DADFRHDSGY
Description: as §1, §2

[22] = biological target: T22, … analog, Residue 1 = I; test: rNET
T22 peptide: IAEFRHDSGY
Description: as §1, §2

[23] = biological target: T23, … analog, Residue 2 = R; test: rNET
T23 peptide: DREFRHDSGY
Description: as §1, §2

[24] = biological target: T24, … analog, Residue 3 = Y; test: rNET
T24 peptide: DAYFRHDSGY
Description: as §1, §2

[25] = biological target: T25, … analog, Residue 1 = L; test: rNET
T25 peptide: LAEFRHDSGY
Description: as §1, §2

[26] = biological target: T26, … analog, Residue 3 = M; test: rNET
T26 peptide: DAMFRHDSGY
Description: as §1, §2

[27] = biological target: T27, … analog, Residue 1 = N; test: rNET
T27 peptide: NAEFRHDSGY
Description: as §1, §2

[28] = biological target: T28, … analog, Residue 2 = N; test: rNET
T28 peptide: DNEFRHDSGY
Description: as §1, §2

[29] = biological target: T29, … analog, Residue 3 = L; test: rNET
T29 peptide: DALFRHDSGY
Description: as §1, §2

[30] = biological target: T30, … analog, Residue 3 = K; test: rNET
T30 peptide: DAKFRHDSGY
Description: as §1, §2

[31] = biological target: T31, … analog, Residue 2 = D; test: rNET
T31 peptide: DDEFRHDSGY
Description: as §1, §2

[32] = biological target: T32, … analog, Residue 3 = C; test: rNET
T32 peptide: DACFRHDSGY
Description: as §1, §2

[33] = biological target: T33, … analog, Residue 2 = K; test: rNET
T33 peptide: DKEFRHDSGY
Description: as §1, §2

[34] = biological target: T34, … analog, Residue 2 = I; test: rNET
T34 peptide: DIEFRHDSGY
Description: as §1, §2

[35] = biological target: T35, … analog, Residue 1 = R; test: rNET
T35 peptide: RAEFRHDSGY
Description: as §1, §2

[36] = biological target: T36, … analog, Residue 2 = Q; test: rNET
T36 peptide: DQEFRHDSGY
Description: as §1, §2

[37] = biological target: T37, … analog, Residue 1 = Y; test: rNET
T37 peptide: YAEFRHDSGY
Description: as §1, §2

[38] = biological target: T38, … analog, Residue 8 = K; test: rNET
T38 peptide: DAEFRHDKGY
Description: as §1, §2

[39] = biological target: T39, … analog, Residue 1 = A; test: rNET
T39 peptide: AAEFRHDSGY
Description: as §1, §2

[40] = biological target: T40, … analog, Residue 3 = I; test: rNET
T40 peptide: DAIFRHDSGY
Description: as §1, §2

[41] = biological target: T41, … analog, Residue 8 = H; test: rNET
T41 peptide: DAEFRHDHGY
Description: as §1, §2

[42] = biological target: T42, … analog, Residue 1 = G; test: rNET
T42 peptide: GAEFRHDSGY
Description: as §1, §2

[43] = biological target: T43, … analog, Residue 1 = W; test: rNET
T43 peptide: WAEFRHDSGY
Description: as §1, §2

[44] = biological target: T44, … analog, Residue 2 = H; test: rNET
T44 peptide: DHEFRHDSGY
Description: as §1, §2

[45] = biological target: T45, … analog, Residue 8 = N; test: rNET
T45 peptide: DAEFRHDNGY
Description: as §1, §2

[46] = biological target: T46, beta amyloid peptide (Aβ) (human, UniProt P05067 672-713, limits assumed); test: BIAcore
T46 construct: also called A-beta; β-amyloid peptide

[47] = biological target: T47, … analog, Residue 1 = Q; test: rNET
T47 peptide: QAEFRHDSGY
Description: as §1, §2

[48] = biological target: T48, … analog, Residue 2 = Y; test: rNET
T48 peptide: DYEFRHDSGY
Description: as §1, §2

[49] = biological target: T49, … analog, Residue 2 = P; test: rNET
T49 peptide: DPEFRHDSGY
Description: as §1, §2

[50] = biological target: T50, … analog, Residue 8 = T; test: rNET
T50 peptide: DAEFRHDTGY
Description: as §1, §2

[51] = biological target: T51, … analog, Residue 3 = S; test: rNET
T51 peptide: DASFRHDSGY
Description: as §1, §2

[52] = biological target: T52, … analog, Residue 8 = D; test: rNET
T52 peptide: DAEFRHDDGY
Description: as §1, §2

[53] = biological target: T53, … analog, Residue 8 = E; test: rNET
T53 peptide: DAEFRHDEGY
Description: as §1, §2

[54] = biological target: T54, … analog, Residue 8 = Y; test: rNET
T54 peptide: DAEFRHDYGY
Description: as §1, §2

[55] = biological target: T55, … analog, Residue 8 = L; test: rNET
T55 peptide: DAEFRHDLGY
Description: as §1, §2

[56] = biological target: T56, … analog, Residue 1 = T; test: rNET
T56 peptide: TAEFRHDSGY
Description: as §1, §2

[57] = biological target: T57, … analog, Residue 8 = G; test: rNET
T57 peptide: DAEFRHDGGY
Description: as §1, §2

[58] = biological target: T58, … analog, Residue 2 = M; test: rNET
T58 peptide: DMEFRHDSGY
Description: as §1, §2

[59] = biological target: T59, … analog, Residue 3 = G; test: rNET
T59 peptide: DAGFRHDSGY
Description: as §1, §2

[60] = biological target: T60, … analog, Residue 5 = G; test: rNET
T60 peptide: DAEFGHDSGY
Description: as §1, §2

[61] = biological target: T61, … analog, Residue 2 = W; test: rNET
T61 peptide: DWEFRHDSGY
Description: as §1, §2

[62] = biological target: T62, … analog, Residue 7 = E; test: rNET
T62 peptide: DAEFRHESGY
Description: as §1, §2

[63] = biological target: T63, … analog, Residue 8 = W; test: rNET
T63 peptide: DAEFRHDWGY
Description: as §1, §2

[64] = biological target: T64, … analog, Residue 8 = I; test: rNET
T64 peptide: DAEFRHDIGY
Description: as §1, §2

[65] = biological target: T65, … analog, Residue 2 = E; test: rNET
T65 peptide: DEEFRHDSGY
Description: as §1, §2

[66] = biological target: T66, … analog, Residue 3 = T; test: rNET
T66 peptide: DATFRHDSGY
Description: as §1, §2

[67] = biological target: T67, … analog, Residue 2 = V; test: rNET
T67 peptide: DVEFRHDSGY
Description: as §1, §2

[68] = biological target: T68, … analog, Residue 3 = V; test: rNET
T68 peptide: DAVFRHDSGY
Description: as §1, §2

[69] = biological target: T69, … analog, Residue 2 = S; test: rNET
T69 peptide: DSEFRHDSGY
Description: as §1, §2

[70] = biological target: T70, … analog, Residue 8 = M; test: rNET
T70 peptide: DAEFRHDMGY
Description: as §1, §2

[71] = biological target: T71, … analog, Residue 3 = R; test: rNET
T71 peptide: DARFRHDSGY
Description: as §1, §2

[72] = biological target: T72, … analog, Residue 3 = A; test: rNET
T72 peptide: DAAFRHDSGY
Description: as §1, §2

[73] = biological target: T73, … analog, Residue 2 = L; test: rNET
T73 peptide: DLEFRHDSGY
Description: as §1, §2

[74] = biological target: T74, … analog, Residue 8 = F; test: rNET
T74 peptide: DAEFRHDFGY
Description: as §1, §2

[75] = biological target: T75, … analog, Residue 8 = Q; test: rNET
T75 peptide: DAEFRHDQGY
Description: as §1, §2

[76] = biological target: T76, … analog, Residue 8 = V; test: rNET
T76 peptide: DAEFRHDVGY
Description: as §1, §2

[77] = biological target: T77, … analog, Residue 3 = F; test: rNET
T77 peptide: DAFFRHDSGY
Description: as §1, §2
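Throughout, for OD: antibody binding measured against single-substituted peptide analogs, each epitope position replaced by every one of 19 non-native amino acids, compared with binding to the native Aβ peptide.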

OD [1]: 0.699 OD
OD [2]: 0.694 OD
OD [3]: 0.712 OD
OD [4]: 0.7 OD
OD [5]: 0.72 OD
OD [6]: 0.406 OD
OD [7]: 0.032 OD
OD [8]: 0.762 OD
OD [9]: 0.072 OD
OD [10]: 0.062 OD
OD [11]: 0.02 OD
OD [12]: 0.02 OD
OD [13]: 0.7 OD
OD [14]: 0.628 OD
OD [15]: 0.717 OD
OD [16]: 0.117 OD
OD [17]: 0.304 OD
OD [18]: 0.694 OD
OD [19]: 0.144 OD
OD [20]: 0.057 OD
OD [21]: 0.027 OD
OD [22]: 0.118 OD
OD [23]: 0.719 OD
OD [24]: 0.02 OD
OD [25]: 0.148 OD
OD [26]: 0.027 OD
OD [27]: 0.757 OD
OD [28]: 0.735 OD
OD [29]: 0.026 OD
OD [30]: 0.09 OD
OD [31]: 0.222 OD
OD [32]: 0.41 OD
OD [33]: 0.722 OD
OD [34]: 0.722 OD
OD [35]: 0.155 OD
OD [36]: 0.756 OD
OD [37]: 0.498 OD
OD [38]: 0.698 OD
OD [39]: 0.643 OD
OD [40]: 0.024 OD
OD [41]: 0.683 OD
OD [42]: 0.738 OD
OD [43]: 0.07 OD
OD [44]: 0.741 OD
OD [45]: 0.7 OD
Kd [46]: 2.24 nM
B1: humanized 3D6 version 2 (antibody, V domains shown)
VH: EVQLLESGGGLVQPGGSLRLSCAASGFTFSNYGMSWVRQAPGKGLEWVASIRSGGGRTYYSDNVKGRFTISRDNSKNTLYLQMNSLRAEDTAVYYCVRYDHYSGSSDYWGQGTLVTVSS
VL: DVVMTQSPLSLPVTPGEPASISCKSSQSLLDSDGKTYLNWLLQKPGQSPQRLIYLVSKLDSGVPDRFSGSGSGTDFTLKISRVEAEDVGVYYCWQGTHFPRTFGQGTKVEIK
notes: also called humanized 3D6v2; h3D6v2

OD [1]: 0.589 OD
OD [2]: 0.574 OD
OD [47]: 0.441 OD
OD [3]: 0.552 OD
OD [4]: 0.583 OD
OD [5]: 0.527 OD
OD [48]: 0.547 OD
OD [6]: 0.153 OD
OD [49]: 0.445 OD
OD [50]: 0.586 OD
OD [51]: 0.016 OD
OD [7]: 0.024 OD
OD [52]: 0.586 OD
OD [8]: 0.569 OD
OD [9]: 0.039 OD
OD [10]: 0.034 OD
OD [53]: 0.601 OD
OD [11]: 0.016 OD
OD [12]: 0.017 OD
OD [54]: 0.574 OD
OD [55]: 0.57 OD
OD [13]: 0.576 OD
OD [14]: 0.45 OD
OD [56]: 0.45 OD
OD [17]: 0.149 OD
OD [57]: 0.569 OD
OD [58]: 0.535 OD
OD [59]: 0.016 OD
OD [60]: 0.485 OD
OD [61]: 0.553 OD
OD [62]: 0.565 OD
OD [18]: 0.553 OD
OD [19]: 0.069 OD
OD [20]: 0.033 OD
OD [21]: 0.019 OD
OD [63]: 0.567 OD
OD [64]: 0.568 OD
OD [22]: 0.048 OD
OD [23]: 0.562 OD
OD [24]: 0.016 OD
OD [25]: 0.073 OD
OD [26]: 0.019 OD
OD [27]: 0.587 OD
OD [65]: 0.563 OD
OD [66]: 0.015 OD
OD [67]: 0.55 OD
OD [68]: 0.016 OD
OD [28]: 0.525 OD
OD [29]: 0.019 OD
OD [31]: 0.119 OD
OD [69]: 0.587 OD
OD [70]: 0.571 OD
OD [32]: 0.222 OD
OD [34]: 0.522 OD
OD [36]: 0.567 OD
OD [71]: 0.015 OD
OD [37]: 0.341 OD
OD [39]: 0.464 OD
OD [40]: 0.019 OD
OD [72]: 0.038 OD
OD [73]: 0.482 OD
OD [41]: 0.559 OD
OD [42]: 0.569 OD
OD [74]: 0.586 OD
OD [43]: 0.031 OD
OD [44]: 0.534 OD
OD [75]: 0.59 OD
OD [76]: 0.578 OD
OD [77]: 0.034 OD
B2: murine monoclonal antibody 3D6 (antibody, mouse IgG2b, V domains shown)
VH: EVKLVESGGGLVKPGASLKLSCAASGFTFSNYGMSWVRQNSDKRLEWVASIRSGGGRTYYSDNVKGRFTISRENAKNTLYLQMSSLKSEDTALYYCVRYDHYSGSSDYWGQGTTVTVSS
VL: not shown
notes: also called mAb 3D6; m3D6
